Source: patent publication US20120316071A1 (published 2012)
Where a chain is given by its changes, count along the chain named. In names and notes the source's numbering stands.

B1: Fab VH5-51_IGHD5-18*01>3_IGHJ4*01 G100K/G104T G24T/S28R/G35V (KT TRV) & V3-4_IGLJ1*01 (wildtype) (Fab, V domains shown)
VH: EVQLVQSGAEVKKPGESLKISCKTSGYRFTSYWIVWVRQMPGKGLEWMGIIYPGDSDTRYSPSFQGQVTISADKSISTAYLQWSSLKASDTAMYYCARRKYSYTYDYFDYWGQGTLVTVSS
VL: QTVVTQEPSFSVSPGGTVTLTCGLSSGSVSTSYYPSWYQQTPGQAPRTLIYSTNTRSSGVPDRFSGSILGNKAALTITGAQADDESDYYCVLYMGSGISYVFGTGTKVTVL
notes: Fab; Expressed in E. coli with CH1 (plasmid A, His6 and Flag tags) and lambda CL (plasmid E); also called H:KT TRV & L:wt
B2: Fab VH5-51_IGHD5-18*01>3_IGHJ4*01 & V3-4_IGLJ1*01 (parental, wildtype) (Fab, V domains shown)
VH: B1 VH with T24G, R28S, V35G, K100G, T104G
VL: B1 VL
notes: Fab; Expressed in E. coli with CH1 (plasmid A, His6 and Flag tags) and lambda CL (plasmid E); also called Wildtype & Wildtype; parent Hit Fab
B3: Fab VH5-51_IGHD5-18*01>3_IGHJ4*01 G100K/G104T (KT) & V3-4_IGLJ1*01 (wildtype) (Fab, V domains shown)
VH: B1 VH with T24G, R28S, V35G
VL: B1 VL
notes: Fab; Expressed in E. coli with CH1 (plasmid A, His6 and Flag tags) and lambda CL (plasmid E); also called H:KT & L:wt; KT double mutant
B4: Fab VH5-51_IGHD5-18*01>3_IGHJ4*01 G100K & V3-4_IGLJ1*01 (wildtype) (Fab, V domains shown)
VH: B1 VH with T24G, R28S, V35G, T104G
VL: B1 VL
notes: Fab; Expressed in E. coli with CH1 (plasmid A, His6 and Flag tags) and lambda CL (plasmid E); also called G100K & Wildtype
B5: Fab VH1-46_IGHD6-6*01_IGHJ1*01 S102A/S103P/S104F (APF) & L6_IGKJ1*01 S30L (Fab, V domains shown)
VH: QVQLVQSGAEVKKPGASVKVSCKASGYTFTSYYMHWVRQAPGQGLEWMGIINPSGGSTSYAQKFQGRVTMTRDTSTSTVYMELSSLRSEDTAVYYCAREEYAPFSAEYFQHWGQGTLVTVSS
VL: EIVLTQSPATLSLSPGERATLSCRASQSVLSYLAWYQQKPGQAPRLLIYDASNRATGIPARFSGSGSGTDFTLTISSLEPEDFAVYYCQQRSNWPPWTFGQGTKVEIKR
notes: Tested as a Fab; Expressed in E. coli from Plasmid A (CH1 with His6 and Flag tags) and Plasmid C (kappa CL); also called APF & S30L
B6: Fab VH1-46_IGHD6-6*01_IGHJ1*01 S102A/S103P/S104F (APF) & L6_IGKJ1*01 S30W (Fab, V domains shown)
VH: B5 VH
VL: B5 VL with L30W
notes: Tested as a Fab; Expressed in E. coli from Plasmid A (CH1 with His6 and Flag tags) and Plasmid C (kappa CL); also called APF & S30W
B7: Fab VH1-46_IGHD6-6*01_IGHJ1*01 S102A/S103P/S104F (APF) & L6_IGKJ1*01 S30R (Fab, V domains shown)
VH: B5 VH
VL: B5 VL with L30R
notes: Tested as a Fab; Expressed in E. coli from Plasmid A (CH1 with His6 and Flag tags) and Plasmid C (kappa CL); also called APF & S30R
B8: Fab VH1-46_IGHD6-6*01_IGHJ1*01 S102A/S103P/S104F/H111F (APFF) & L6_IGKJ1*01 S28G (Fab, V domains shown)
VH: B5 VH with H111F
VL: B5 VL with S28G, L30S
notes: Tested as a Fab; Expressed in E. coli from Plasmid A (CH1 with His6 and Flag tags) and Plasmid C (kappa CL); also called APFF & S28G
B9: Fab VH1-46_IGHD6-6*01_IGHJ1*01 S102A/S103P/S104F (APF) & L6_IGKJ1*01 Y32S (Fab, V domains shown)
VH: B5 VH
VL: B5 VL with L30S, Y32S
notes: Tested as a Fab; Expressed in E. coli from Plasmid A (CH1 with His6 and Flag tags) and Plasmid C (kappa CL); also called APF & Y32S
B10: Fab VH1-46_IGHD6-6*01_IGHJ1*01 S102A/S103P/S104F (APF) & L6_IGKJ1*01 S30T (Fab, V domains shown)
VH: B5 VH
VL: B5 VL with L30T
notes: Tested as a Fab; Expressed in E. coli from Plasmid A (CH1 with His6 and Flag tags) and Plasmid C (kappa CL); also called APF & S30T
B11: Fab VH1-46_IGHD6-6*01_IGHJ1*01 S102A/S103P/S104F/H111F (APFF) & L6_IGKJ1*01 S28F (Fab, V domains shown)
VH: B5 VH with H111F
VL: B5 VL with S28F, L30S
notes: Tested as a Fab; Expressed in E. coli from Plasmid A (CH1 with His6 and Flag tags) and Plasmid C (kappa CL); also called APFF & S28F
B12: Fab VH1-46_IGHD6-6*01_IGHJ1*01 S102A/S103P/S104F/H111F (APFF) & L6_IGKJ1*01 S28K (Fab, V domains shown)
VH: B5 VH with H111F
VL: B5 VL with S28K, L30S
notes: Tested as a Fab; Expressed in E. coli from Plasmid A (CH1 with His6 and Flag tags) and Plasmid C (kappa CL); also called APFF & S28K
B13: Fab VH1-46_IGHD6-6*01_IGHJ1*01 S102A/S103P/S104F/H111F (APFF) & L6_IGKJ1*01 S28V (Fab, V domains shown)
VH: B5 VH with H111F
VL: B5 VL with S28V, L30S
notes: Tested as a Fab; Expressed in E. coli from Plasmid A (CH1 with His6 and Flag tags) and Plasmid C (kappa CL); also called APFF & S28V
B14: Fab VH5-51_IGHD5-18*01>3_IGHJ4*01 G100K/G104T G24T/S28R/G35V (H:KT TRV) & V3-4_IGLJ1*01 V91L/S96P S57M (Fab, V domains shown)
VH: B1 VH
VL: B1 VL with S57M, V91L, S96P
notes: Fab made in E. coli: VH in plasmid A (CH1, His6 and Flag tags), VL in plasmid E (lambda CL); also called H:KT TRV & L:LP S57M
B15: Fab VH5-51_IGHD5-18*01>3_IGHJ4*01 G100K/G104T G24T/S28R/G35V (H:KT TRV) & V3-4_IGLJ1*01 V91L/S96P S57T (Fab, V domains shown)
VH: B1 VH
VL: B1 VL with S57T, V91L, S96P
notes: Fab made in E. coli: VH in plasmid A (CH1, His6 and Flag tags), VL in plasmid E (lambda CL); also called H:KT TRV & L:LP S57T
B16: Fab VH5-51_IGHD5-18*01>3_IGHJ4*01 G100K/G104T G24T/S28R/G35V (H:KT TRV) & V3-4_IGLJ1*01 V91L/S96P S57R (Fab, V domains shown)
VH: B1 VH
VL: B1 VL with S57R, V91L, S96P
notes: Fab made in E. coli: VH in plasmid A (CH1, His6 and Flag tags), VL in plasmid E (lambda CL); also called H:KT TRV & L:LP S57R
B17: Fab VH5-51_IGHD5-18*01>3_IGHJ4*01 G100K/G104T G24T/S28R/G35V (H:KT TRV) & V3-4_IGLJ1*01 V91L/S96P T53G (Fab, V domains shown)
VH: B1 VH
VL: B1 VL with T53G, V91L, S96P
notes: Fab made in E. coli: VH in plasmid A (CH1, His6 and Flag tags), VL in plasmid E (lambda CL); also called H:KT TRV & L:LP T53G
B18: Fab VH5-51_IGHD5-18*01>3_IGHJ4*01 G100K/G104T G24T/S28R/G35V (H:KT TRV) & V3-4_IGLJ1*01 V91L/S96P S57P (Fab, V domains shown)
VH: B1 VH
VL: B1 VL with S57P, V91L, S96P
notes: Fab made in E. coli: VH in plasmid A (CH1, His6 and Flag tags), VL in plasmid E (lambda CL); also called H:KT TRV & L:LP S57P
B19: Fab VH5-51_IGHD5-18*01>3_IGHJ4*01 G100K/G104T G24T/S28R/G35V (H:KT TRV) & V3-4_IGLJ1*01 V91L/S96P S57N (Fab, V domains shown)
VH: B1 VH
VL: B1 VL with S57N, V91L, S96P
notes: Fab made in E. coli: VH in plasmid A (CH1, His6 and Flag tags), VL in plasmid E (lambda CL); also called H:KT TRV & L:LP S57N
B20: Fab VH5-51_IGHD5-18*01>3_IGHJ4*01 G100K/G104T G24T/S28R/G35V (H:KT TRV) & V3-4_IGLJ1*01 V91L/S96P T53R (Fab, V domains shown)
VH: B1 VH
VL: B1 VL with T53R, V91L, S96P
notes: Fab made in E. coli: VH in plasmid A (CH1, His6 and Flag tags), VL in plasmid E (lambda CL); also called H:KT TRV & L:LP T53R
B21: Fab VH5-51_IGHD5-18*01>3_IGHJ4*01 G100K/G104T G24T/S28R/G35V (H:KT TRV) & V3-4_IGLJ1*01 V91L/S96P S57V (Fab, V domains shown)
VH: B1 VH
VL: B1 VL with S57V, V91L, S96P
notes: Fab made in E. coli: VH in plasmid A (CH1, His6 and Flag tags), VL in plasmid E (lambda CL); also called H:KT TRV & L:LP S57V
B22: Fab VH5-51_IGHD5-18*01>3_IGHJ4*01 G100K/G104T G24T/S28R/G35V (H:KT TRV) & V3-4_IGLJ1*01 V91L/S96P T53W (Fab, V domains shown)
VH: B1 VH
VL: B1 VL with T53W, V91L, S96P
notes: Fab made in E. coli: VH in plasmid A (CH1, His6 and Flag tags), VL in plasmid E (lambda CL); also called H:KT TRV & L:LP T53W
B23: Fab VH5-51_IGHD5-18*01>3_IGHJ4*01 G100K/G104T G24T/S28R/G35V (H:KT TRV) & V3-4_IGLJ1*01 V91L/S96P S57W (Fab, V domains shown)
VH: B1 VH
VL: B1 VL with S57W, V91L, S96P
notes: Fab made in E. coli: VH in plasmid A (CH1, His6 and Flag tags), VL in plasmid E (lambda CL); also called H:KT TRV & L:LP S57W
B24: Fab VH5-51_IGHD5-18*01>3_IGHJ4*01 G100K/G104T G24T/S28R/G35V (H:KT TRV) & V3-4_IGLJ1*01 V91L/S96P S57Q (Fab, V domains shown)
VH: B1 VH
VL: B1 VL with S57Q, V91L, S96P
notes: Fab made in E. coli: VH in plasmid A (CH1, His6 and Flag tags), VL in plasmid E (lambda CL); also called H:KT TRV & L:LP S57Q
B25: Fab VH5-51_IGHD5-18*01>3_IGHJ4*01 G100K/G104T G24T/S28R/G35V (H:KT TRV) & V3-4_IGLJ1*01 V91L/S96P S57Y (Fab, V domains shown)
VH: B1 VH
VL: B1 VL with S57Y, V91L, S96P
notes: Fab made in E. coli: VH in plasmid A (CH1, His6 and Flag tags), VL in plasmid E (lambda CL); also called H:KT TRV & L:LP S57Y

Target: T1, Recombinant Human DLL4 (delta-like protein 4) (human, UniProt Q9NR61 27-524)
T1 construct: Bought recombinant human DLL4 coated on the ELISA plate; also called rHuman DLL4
Experiment: ELISA, DLL4 coated on plate, Fab at 50 nM (2-fold dilution series), absorbance at 450 nm

Row | ELISA signal | Binder
1 | 0.32 | B1
2 | 0.16 | B2
3 | 0.18 | B3
4 | 0.19 | B4

Target: T1, Recombinant Human DLL4 (delta-like …)
Experiment: ELISA, DLL4 coated on plate, Fab at 12.5 nM (2-fold dilution series), absorbance at 450 nm

Row | ELISA signal | Binder
5 | 0.23 | B1
6 | 0.17 | B2
7 | 0.18 | B3
8 | 0.19 | B4

Target: T2, Recombinant Human DLL4 (R&D Systems Cat#1506-D4/CF) (human, UniProt Q9NR61 27-524)
T2 construct: Bought recombinant protein; also called delta-like protein 4; rHuman DLL4
Experiment: ECL (MSD) multispot binding assay, DLL4 spotted on plate, Fab in solution

Row | ECL signal | Signal/Blank | Binder
9 | 1630 | 6.9 | B5
10 | 791 | 4.3 | B6
11 | 745 | 7.8 | B7
12 | 183000 | 533 | B8
13 | 1030 | 4.9 | B9
14 | 1020 | 4.9 | B10
15 | 134000 | 537 | B11
16 | 124000 | 314 | B12
17 | 83100 | 351 | B13

Target: T1, Recombinant Human DLL4 (delta-like …)
Experiment: ELISA, DLL4 coated on plate, Fab at 25 nM (2-fold dilution series), absorbance at 450 nm

Row | ELISA signal | Binder
18 | 0.26 | B1
19 | 0.18 | B2
20 | 0.16 | B3
21 | 0.18 | B4

Target: T1, Recombinant Human DLL4 (delta-like …)
Experiment: ELISA, DLL4 coated on plate, Fab at 100 nM (2-fold dilution series), absorbance at 450 nm

Row | ELISA signal | Binder
22 | 0.45 | B1
23 | 0.17 | B2
24 | 0.18 | B3
25 | 0.2 | B4

Target: T3, Recombinant Human DLL4 (delta-like protein 4) (human, UniProt Q9NR61 27-524)
T3 construct: Bought recombinant human DLL4 (R&D Systems Cat#1506-D4/CF) coated on the ELISA plate; also called rHuman DLL4; Delta-like ligand 4
Experiment: ELISA, DLL4 coated on plate, 100 nM Fab

Row | ELISA Signal-blank (100 nM Fab) | Binder
26 | 0.3 | B14
27 | 0.3 | B15
28 | 0.18 | B16
29 | 0.08 | B17
30 | 0.36 | B18
31 | 0.24 | B19
32 | 0.05 | B20
33 | 0.34 | B21
34 | 0.06 | B22
35 | 0.12 | B23
36 | 0.21 | B24
37 | 0.28 | B25
